Results on one molecule are retold here after CN115558029A.

In assay [1] the target is PD-1 on Jurkat/PD-1细胞(Promega) (UniProt Q15116). In words: cell-based or functional assay.
For assay [2] the target is unchanged. Kind of assay: cell-based or functional assay. The source holds these as a separate data set.
Assay [3] shares this target. Kind of assay: cell-based or functional assay. This is another data set of the same source.
Assay [4] addresses 人PD-1蛋白(北京百普赛斯，货号PD1-H5221) (human) (UniProt Q15116). In words: binding ELISA on coated PD-1 protein. Background: ELISA stands for enzyme-linked immunosorbent assay.
Assay [5] has the same target. Kind of assay: binding ELISA on coated PD-1 protein. This is another data set of the same source.
Assay [6] has the same target. In words: binding ELISA on coated PD-1 protein. This is another data set of the same source.
For assay [7] the target is unchanged. Kind of assay: binding ELISA on coated PD-1 protein. This is another data set of the same source.
For assay [8] the target is unchanged. Kind of assay: binding ELISA, human PD-1 protein coated at 1 μg/mL, anti-human IgG (Fc)-HRP.

Where two headings read alike, the source gives them in different places.

B1: PD-1VHH抗体克隆huVHH3-3 (VHH, part only; not given: format as tested, part only)
VHH, part: EVQLVESGGGLVQPGGSLRLSCAASGRTSSMYAMGWFRQAPGNEREFVAGIGWENNTPYYARSVEGRFTISRDNVKNTVFLQMNRLRAEDTAVYYCAAQIGISGTLGDYWGQGTQVTVSS
The EC50 is the midpoint of the concentration-response curve. A low value points to greater potency. As for B1, the EC50, PD-1报告基因法 in assay [1] was found to be 0.2 µg/mL; in assay [2], 0.4 µg/mL; in assay [3] it was 0.5 µg/mL. Besides, the EC50, 报告基因法 (CHO/PD-L1 + Jurkat/PD-1, One-Glo luminescence) in assay [1] lay in the range of 0.2 to 0.5 µg/mL. The EC50 is 0.0164 µg/mL in assay [4]; 0.0073 µg/mL in assay [5]; 0.0122 µg/mL in assay [6]; 0.0053 µg/mL in assay [7]; 0.0202 µg/mL in assay [8].
